From patent US20250388703A1

Experiments:
[1] = target: Human CD28-his (ACROBiosystems CD8-H52H3) (human) (UniProt P10747); assay: column 'CD28 affinity (nM)'; assay not named on the sheet; BLI on human CD28-His per Example 1
[2] = target: Human CD3 E/D dimer (heterodimeric construct of human CD3 epsilon and CD3 delta domains, ACROBiosystems CDD-H52Wa) (human) (UniProt P07766); assay: column 'CD3 affinity (nM)'; assay not named on the sheet; BLI on human CD3 epsilon/delta-His per Example 1
[3] = target: Human CD3 E/D dimer (heterodimeric construct of human CD3 epsilon and CD3 delta domains, ACROBiosystems CDD-H52Wa) (human) (UniProt P07766); assay: BLI, CD3E/D-His on anti-His probes, 1:1 fit
[4] = target: DLL3 (human) (UniProt Q9NYJ7); assay: not named on the sheet; Example 1 describes flow cytometry on CHO-K1 cells over-expressing DLL3
Chain of DLL3 (human) (Q9NYJ7 27-492 limits assumed): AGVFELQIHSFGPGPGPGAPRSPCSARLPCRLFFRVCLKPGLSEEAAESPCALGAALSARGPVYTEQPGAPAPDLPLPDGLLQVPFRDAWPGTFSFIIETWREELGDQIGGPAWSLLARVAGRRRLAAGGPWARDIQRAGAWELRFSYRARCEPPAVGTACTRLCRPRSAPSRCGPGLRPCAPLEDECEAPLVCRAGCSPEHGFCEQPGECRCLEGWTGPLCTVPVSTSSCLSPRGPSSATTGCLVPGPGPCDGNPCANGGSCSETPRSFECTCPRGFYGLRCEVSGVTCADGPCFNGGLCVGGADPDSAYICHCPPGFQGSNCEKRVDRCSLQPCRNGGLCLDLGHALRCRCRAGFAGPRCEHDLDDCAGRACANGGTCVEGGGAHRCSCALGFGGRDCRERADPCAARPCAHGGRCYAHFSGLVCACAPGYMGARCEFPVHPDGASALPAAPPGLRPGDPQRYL

Chain of Human CD3 E/D dimer (heterodimeric construct of human CD3 epsilon and CD3 delta domains, ACROBiosystems CDD-H52Wa) (human) (P07766 23-126 limits assumed, stated change not applied, chain 1 of 2): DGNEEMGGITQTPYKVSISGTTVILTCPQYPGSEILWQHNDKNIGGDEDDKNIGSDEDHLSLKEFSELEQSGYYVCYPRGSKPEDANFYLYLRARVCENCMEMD
Chain of Human CD3 E/D dimer (heterodimeric construct of human CD3 epsilon and CD3 delta domains, ACROBiosystems CDD-H52Wa) (human) (P04234 22-105 limits assumed, stated change not applied, chain 2 of 2, further chain): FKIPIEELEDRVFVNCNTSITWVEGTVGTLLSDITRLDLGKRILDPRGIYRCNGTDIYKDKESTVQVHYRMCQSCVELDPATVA

## 328_BM (SAR443216)
[1]
  Kd: 4.32 nM
[2]
  Kd: 22.9 nM

## AMG757 (Tarlatamab, BM) (bispecific antibody)
[3]
  Fold reduction in CD3 affinity compared to Tarlatamab: 1 fold
  Kd: 2 nM
[4]
  DLL3 affinity: 0.2 nM
[2]
  Kd: 3 nM
